According to US7312188B2, “Peptide derivatives having β-secretase inhibitory activity” (priority 2003, dated 2007):
Numbered stars: 1 amine (or outer) side, 2 acyl side, 3 side chain; on linkers, the order of the positions; unused ones are H or OH. Square brackets hold non-standard residues; d marks the D form. Apns = amino acid residue of (2S,3S)-3-amino-2-hydroxy-4-phenylbutanoic acid, O=C([C@@H](O)[C@H](Cc1ccccc1)N[*:1])[*:2]; β3hPhe(2R-OH) = O=C([C@H](O)[C@H](Cc1ccccc1)N[*:1])[*:2]

These compounds were tested against T1, recombinant human BACE-1 (rhBACE-1) (Homo sapiens, UniProt P56817) (assay: BACE1 inhibitory activity, reverse phase HPLC quantitation of N-terminal fragment of fluorogenic substrate). Settings: 1 μL of inhibitor solution in DMSO (100 μM) in 50 μL reaction; MES buffer pH 5.0; 37° C., 60 minutes.
T1 construct: expressed as only an extracellular region (amino acid 1-460 residues) of recombinant human β-secretase; His tag (C); purchased R&D systems (Minneapolis, Minn.); host or cells: murine myeloma cell line NS0
Format: biochemical
How it was run: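 rhBACE-1 ectodomain (residues 1-460, C-terminal His tag, NS0-expressed) in MES buffer pH 5.0 with inhibitor (diluted in DMSO, 100 μM solution) and MCA/DNP fluorogenic peptide (250 μM stock), 60 min at 37 °C, TCA stop. N-terminal fragment quantified by reverse-phase HPLC fluorescence (Ex 328/Em 393 nm); inhibition % derived.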

T1 sequence (P56817 22-460 limits assumed): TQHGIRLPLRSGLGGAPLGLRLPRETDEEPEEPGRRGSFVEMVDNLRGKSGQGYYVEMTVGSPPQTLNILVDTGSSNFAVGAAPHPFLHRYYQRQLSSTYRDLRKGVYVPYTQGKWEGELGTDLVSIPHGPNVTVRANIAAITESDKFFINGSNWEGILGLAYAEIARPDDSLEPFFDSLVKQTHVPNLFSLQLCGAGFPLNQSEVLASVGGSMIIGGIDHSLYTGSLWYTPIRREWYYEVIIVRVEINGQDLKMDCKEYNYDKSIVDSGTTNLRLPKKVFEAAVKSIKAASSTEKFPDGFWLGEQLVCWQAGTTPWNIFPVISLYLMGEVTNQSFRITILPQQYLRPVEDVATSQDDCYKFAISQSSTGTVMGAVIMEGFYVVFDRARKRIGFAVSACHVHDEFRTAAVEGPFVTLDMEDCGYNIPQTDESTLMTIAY

| inhibition at 2 µM | inhibition at 100 µM (stock) | Activity (BACE1 inhibition %) | Compound |
| --- | --- | --- | --- |
|  |  | 53.71% | H-Glu-Val-Leu-Pns-Ala-Ala-Glu-Phe-OH (H-EVL[β3hPhe(2R-OH)]AAEF-OH; SMILES CC(C)C[C@H](NC(=O)[C@@H](NC(=O)[C@@H](N)CCC(=O)O)C(C)C)C(=O)N[C@@H](Cc1ccccc1)[C@@H](O)C(=O)N[C@@H](C)C(=O)N[C@@H](C)C(=O)N[C@@H](CCC(=O)O)C(=O)N[C@@H](Cc1ccccc1)C(=O)O) [Example 13] |
|  |  | 78.43% | H-Glu-Val-Leu-Pns-Ala-Glu-Glu-Phe-OH (H-EVL[β3hPhe(2R-OH)]AEEF-OH; SMILES CC(C)C[C@H](NC(=O)[C@@H](NC(=O)[C@@H](N)CCC(=O)O)C(C)C)C(=O)N[C@@H](Cc1ccccc1)[C@@H](O)C(=O)N[C@@H](C)C(=O)N[C@@H](CCC(=O)O)C(=O)N[C@@H](CCC(=O)O)C(=O)N[C@@H](Cc1ccccc1)C(=O)O) [Example 27] |
|  |  | 60.23% | H-Glu-Val-Leu-Pns-Ala-Phe-Glu-Phe-OH (H-EVL[β3hPhe(2R-OH)]AFEF-OH; SMILES CC(C)C[C@H](NC(=O)[C@@H](NC(=O)[C@@H](N)CCC(=O)O)C(C)C)C(=O)N[C@@H](Cc1ccccc1)[C@@H](O)C(=O)N[C@@H](C)C(=O)N[C@@H](Cc1ccccc1)C(=O)N[C@@H](CCC(=O)O)C(=O)N[C@@H](Cc1ccccc1)C(=O)O) [Example 26] |
|  |  | 55.88% | H-Glu-Val-Leu-Pns-Asp-Ala-Gln-Phe-OH (H-EVL[β3hPhe(2R-OH)]DAQF-OH; SMILES CC(C)C[C@H](NC(=O)[C@@H](NC(=O)[C@@H](N)CCC(=O)O)C(C)C)C(=O)N[C@@H](Cc1ccccc1)[C@@H](O)C(=O)N[C@@H](CC(=O)O)C(=O)N[C@@H](C)C(=O)N[C@@H](CCC(N)=O)C(=O)N[C@@H](Cc1ccccc1)C(=O)O) [Example 28] |
|  |  | 66.79% | H-Glu-Val-Leu-Pns-Asp-Ala-Glu-Gly-OH (H-EVL[β3hPhe(2R-OH)]DAEG-OH; SMILES CC(C)C[C@H](NC(=O)[C@@H](NC(=O)[C@@H](N)CCC(=O)O)C(C)C)C(=O)N[C@@H](Cc1ccccc1)[C@@H](O)C(=O)N[C@@H](CC(=O)O)C(=O)N[C@@H](C)C(=O)N[C@@H](CCC(=O)O)C(=O)NCC(=O)O) [Example 45] |
|  |  | 89.65% | H-Glu-Val-Leu-Pns-Asp-Ala-Glu-Phe-OH (H-EVL[β3hPhe(2R-OH)]DAEF-OH; SMILES CC(C)C[C@H](NC(=O)[C@@H](NC(=O)[C@@H](N)CCC(=O)O)C(C)C)C(=O)N[C@@H](Cc1ccccc1)[C@@H](O)C(=O)N[C@@H](CC(=O)O)C(=O)N[C@@H](C)C(=O)N[C@@H](CCC(=O)O)C(=O)N[C@@H](Cc1ccccc1)C(=O)O) [Example 7] |
|  |  | 56.57% | H-Glu-Val-Leu-Pns-Asp-Ala-Leu-Phe-OH (H-EVL[β3hPhe(2R-OH)]DALF-OH; SMILES CC(C)C[C@H](NC(=O)[C@H](C)NC(=O)[C@H](CC(=O)O)NC(=O)[C@H](O)[C@H](Cc1ccccc1)NC(=O)[C@H](CC(C)C)NC(=O)[C@@H](NC(=O)[C@@H](N)CCC(=O)O)C(C)C)C(=O)N[C@@H](Cc1ccccc1)C(=O)O) [Example 30] |
|  |  | 66.56% | H-Glu-Val-Leu-Pns-Asp-Ala-Phe-Phe-OH (H-EVL[β3hPhe(2R-OH)]DAFF-OH; SMILES CC(C)C[C@H](NC(=O)[C@@H](NC(=O)[C@@H](N)CCC(=O)O)C(C)C)C(=O)N[C@@H](Cc1ccccc1)[C@@H](O)C(=O)N[C@@H](CC(=O)O)C(=O)N[C@@H](C)C(=O)N[C@@H](Cc1ccccc1)C(=O)N[C@@H](Cc1ccccc1)C(=O)O) [Example 31] |
|  |  | 57.47% | H-Glu-Val-Leu-Pns-Asp-Ala-Val-Phe-OH (H-EVL[β3hPhe(2R-OH)]DAVF-OH; SMILES CC(C)C[C@H](NC(=O)[C@@H](NC(=O)[C@@H](N)CCC(=O)O)C(C)C)C(=O)N[C@@H](Cc1ccccc1)[C@@H](O)C(=O)N[C@@H](CC(=O)O)C(=O)N[C@@H](C)C(=O)N[C@H](C(=O)N[C@@H](Cc1ccccc1)C(=O)O)C(C)C) [Example 29] |
|  |  | 81.23% | H-Glu-Val-Leu-Pns-Asp-Gly-Glu-Phe-OH (H-EVL[β3hPhe(2R-OH)]DGEF-OH; SMILES CC(C)C[C@H](NC(=O)[C@@H](NC(=O)[C@@H](N)CCC(=O)O)C(C)C)C(=O)N[C@@H](Cc1ccccc1)[C@@H](O)C(=O)N[C@@H](CC(=O)O)C(=O)NCC(=O)N[C@@H](CCC(=O)O)C(=O)N[C@@H](Cc1ccccc1)C(=O)O) [Example 43] |
|  |  | 54.52% | H-Glu-Val-Leu-Pns-Glu-Ala-Glu-Phe-OH (H-EVL[β3hPhe(2R-OH)]EAEF-OH; SMILES CC(C)C[C@H](NC(=O)[C@@H](NC(=O)[C@@H](N)CCC(=O)O)C(C)C)C(=O)N[C@@H](Cc1ccccc1)[C@@H](O)C(=O)N[C@@H](CCC(=O)O)C(=O)N[C@@H](C)C(=O)N[C@@H](CCC(=O)O)C(=O)N[C@@H](Cc1ccccc1)C(=O)O) [Example 15] |
|  |  | 56.72% | H-Glu-Val-Leu-Pns-Gly-Ala-Glu-Phe-OH (H-EVL[β3hPhe(2R-OH)]GAEF-OH; SMILES CC(C)C[C@H](NC(=O)[C@@H](NC(=O)[C@@H](N)CCC(=O)O)C(C)C)C(=O)N[C@@H](Cc1ccccc1)[C@@H](O)C(=O)NCC(=O)N[C@@H](C)C(=O)N[C@@H](CCC(=O)O)C(=O)N[C@@H](Cc1ccccc1)C(=O)O) [Example 42] |
|  |  | 96.66% | β-ODap-Val-Leu-Pns-Asp-Ala-Gly-Phe-OH ({β‑ODap}-VL[β3hPhe(2R-OH)]DAGF-OH) [Example 63] |

More lines, now with the values behind:

| Compound | inhibition at 2 µM | inhibition at 100 µM (stock) | Activity (BACE1 inhibition %) |
| --- | --- | --- | --- |
| CNC(=O)c1cc(NC(=O)[C@H](O)[C@H](Cc2ccccc2)NC(=O)[C@H](CC(C)C)NC(=O)[C@@H](NC(=O)[C@@H](N)CCC(=O)O)C(C)C)cc(C(=O)NC)c1 [Example 180] | 51.4% |  |  |
| COC(=O)c1cc(N)cc(C(=O)NC[C@H](N)C(=O)N[C@H](C(=O)N[C@@H](CC(C)C)C(=O)N[C@@H](Cc2ccccc2)[C@@H](O)C(=O)Nc2cccc(C(=O)O)c2)C(C)C)c1 [Example 181] |  | 82.5% |  |
| CC(C)C[C@H](NC(=O)[C@@H](NC(=O)[C@@H](N)CCC(=O)O)C(C)C)C(=O)N[C@@H](Cc1ccccc1)[C@@H](O)C(=O)Nc1cc(Cl)c(OCC(N)=O)c(Cl)c1 [Example 182] |  | 75.7% |  |
| COC(=O)c1cccc(C(=O)NC[C@H](N)C(=O)N[C@H](C(=O)N[C@@H](CC(C)C)C(=O)N[C@@H](Cc2ccccc2)[C@@H](O)C(=O)Nc2cccc(C(=O)O)c2)C(C)C)c1 [Example 183] |  | 52.1% |  |
| CC(C)C[C@H](NC(=O)[C@@H](NC(=O)[C@@H](N)CCC(=O)O)C(C)C)C(=O)N[C@@H](Cc1ccccc1)[C@@H](O)C(=O)Nc1cc(Br)c(OCC(=O)O)c(Br)c1 [Example 184] |  | 88.1% |  |
| CC(C)C[C@H](NC(=O)[C@@H](NC(=O)[C@@H](N)CNC(=O)c1nnn[nH]1)C(C)C)C(=O)N[C@@H](Cc1ccccc1)[C@@H](O)C(=O)Nc1cccc(-c2nnn[nH]2)c1 [Example 185] |  | 100% |  |
| CC(C)C[C@H](NC(=O)[C@@H](NC(=O)[C@@H](N)CNC(=O)c1[nH]c(=O)[nH]c(=O)c1F)C(C)C)C(=O)N[C@@H](Cc1ccccc1)[C@@H](O)C(=O)Nc1cccc(-c2nnn[nH]2)c1 [Example 187] |  | 100% |  |
| CC(C)[C@H](NC(=O)[C@@H](N)CNC(=O)c1cc(O)ccc1O)C(=O)N[C@@H](CC1CCCCC1)C(=O)N[C@@H](Cc1ccccc1)[C@@H](O)C(=O)Nc1cccc(-c2nnn[nH]2)c1 [Example 188] |  | 99.5% |  |
| CC(C)[C@H](NC(=O)[C@@H](N)CNC(=O)c1[nH]c(=O)[nH]c(=O)c1F)C(=O)N[C@@H](CC1CCCCC1)C(=O)N[C@@H](Cc1ccccc1)[C@@H](O)C(=O)Nc1cccc(-c2nnn[nH]2)c1 [Example 189] |  | 100% |  |
| CC(C)C[C@H](NC(=O)[C@@H](NC(=O)[C@@H](N)CNC(=O)c1cc(O)ccc1O)C(C)C)C(=O)N[C@@H](Cc1ccccc1)[C@@H](O)C(=O)Nc1cccc(-c2nnn[nH]2)c1 [Example 190] |  | 99.3% |  |
| H-Glu-Val-Leu-Apns-Asp-Ala-Glu-Phe-OH ({H2N-Glu-Val-Leu-Apns}-DAEF-OH; SMILES CC(C)C[C@H](NC(=O)[C@@H](NC(=O)[C@@H](N)CCC(=O)O)C(C)C)C(=O)N[C@@H](Cc1ccccc1)[C@H](O)C(=O)N[C@@H](CC(=O)O)C(=O)N[C@@H](C)C(=O)N[C@@H](CCC(=O)O)C(=O)N[C@@H](Cc1ccccc1)C(=O)O) [Example 18] |  |  | 53.38% |
| H-Glu-Val-Leu-Pns-Asp-Ala-Glu-OH [Example 32] |  |  | 71.60% |
| H-Glu-Val-Leu-Pns-Asp-OH [Example 34] |  |  | 63.71% |

Same assay, conditions: pH 5, 100 µM

| Activity (BACE1 inhibition %) | Compound |
| --- | --- |
| 56.30% | H-Glu-Val-Leu-Pns-Asp-Ala-Gly-Phe-OH [Example 44] |
